Assay [1] has as its target unlabeled protein extract from untreated animals. Kind of assay: direct TR-FRET inhibition; six-fold excess of unlabeled extract from untreated rabbits as competitor against biotinylated atheromatous extract, 16 h at 4 °C. On the technique in general: Time-resolved FRET reads energy transfer from a long-lived donor to a nearby acceptor.
Assay [2] addresses rabbit atheromatous protein extract. Nature of the assay: direct TR-FRET inhibition; six-fold excess of unlabeled atheromatous extract as competitor against biotinylated atheromatous extract, 16 h at 4 °C.

B1: I8.1 scFv antibody (scFv)
scFv: EVQLVESGGSLVKPGGSLRLSCAASGFTFSNYSMNWVRQAPGKGLEWISSISGSSRYIYYADFVKGRFTISRDNATNSLYLQMNSLRAEDTAVYYCVRNSFYASWSKDYSMEIWGRGTLVTVSSGGGGSGGGGSGGGGSQSVLTQPASVSGSPGQSITISCAGTSSDVGGYNYVSWYQQHPGKAPKLMIYEDSKRPSGVSNRFSGSKSGNTASLTISGLQAEDEADYYCQSWASRINIFGGGTKLAV
For B1, the results for the inhibition of the DeltaF binding value in assay [1] and in assay [2] were 35% and 80%, respectively.

B2: H2.1 scFv antibody (scFv)
scFv: EVQLVESGGSLVKPGGSLRLSCAASGFTFSNYSMNWVRQAPGKGLEWISSISGSSRYIYYADFVKGRFTISRDNATNSLYLQMNSLRAEDTAVYYCVRGGVDSSGDNCFDLWGRGTLVTVSSGGGGSGGGGSGGGGSQSVLTQPASVSGSPGQSITISCAGTSSDVGGYNYVSWYQQHPGKAPKLMIYEDSKRPSGVSNRFSGSKSGNTASLTISGLQAEDEADYYCTSYGSGATLVFGGGTKLAV
On to B2, for which the inhibition of the DeltaF binding value worked out at 50% in assay [1] and 75% in assay [2].

The values above are taken from patent publication US20140328753A1.
